In the RNAGym collection of RNA variant scans (doi:10.1093/molbev/msab373):

B1: Azoarcus group I ribozyme (parent)
chain: GUGCCUUGCGCCGGGAAACCACGCAAGGGAUGGUGUCAAAUUCGGCGAAACCUAAGCGCCCGCCCGGGCGUAUGGCAACGCCGAGCCAAGCUUCGGCGCCUGCGCCGAUGAAGGUGUAGAGACUAGACGGCACCCACCUAAGGCAAACGCUAUGGUGAAGGCAUAGUCCAGGGAGUGGCGAAAGUCACACAAACCGG

Variants of: B1
Test: reverse-splicing fitness (ratio to wild type); higher = more active; in vitro selection; Mg2+ level not given
Method in brief: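 An in vitro group I ribozyme library with randomized positions was T7-transcribed and gel-purified. In triplicate, 10 pmol RNA in EPPS pH 7.5 was reacted with 50 pmoles of a 30-nt RNA substrate for 1 h at 37 °C across several added MgCl2 levels (1–48 mM), then stopped with EDTA. Products were reverse transcribed from a substrate-complementary primer, PCR-amplified and sequenced (HiSeq 4000). Fitness is a variant's read proportion after selection over that before, normalised to wild type.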
C82A A111U A120U A145U C150G C169U U176C gave a reverse-splicing fitness of 0.00313. With C82A A111U A120U A145U C150G C169U U176G the reverse-splicing fitness was 0.0027. Variant C82A A111U A145C C150U C169U U176G has a reverse-splicing fitness of 0.00661. For C82A A111U A145C C150U C169U U176A, the reverse-splicing fitness was 0.0138. In the case of C82A A111U A145C C150U C169U U176C, the reverse-splicing fitness is reported as 0.00945. In the case of C82A A111U A120U C150G C169U U176A, the reverse-splicing fitness is reported as 0.00341. Work on C82A A111U A120U C150G C169U U176C yielded a reverse-splicing fitness of 0.00451. C82A A111U A120U C150G C169U U176G gave a reverse-splicing fitness of 0.00327. C82A A111U A145C C150U C169A gave a reverse-splicing fitness of 0.0081. C82A A111U A145C C150U C169G gave a reverse-splicing fitness of 0.00788. In the case of C82A A111U A145C C150U C169U, the reverse-splicing fitness is reported as 0.0112. C82A A111U A120U A145G C150G C169G gave a reverse-splicing fitness of 0.00757. Work on C82A A111U A120U A145G C150G C169A yielded a reverse-splicing fitness of 0.00923. Variant C82A A111U A120U A145G C150G C169U has a reverse-splicing fitness of 0.00854. C82A A111U A120U A145C C150U C169A U176G showed a reverse-splicing fitness of 0.00224. C82A A111U A120U A145C C150U C169A U176A showed a reverse-splicing fitness of 0.00281. With C82A A111U A120U A145C C150U C169A U176C the reverse-splicing fitness was 0.00232. C82A A111U A120U A145G C169U U176G gave a reverse-splicing fitness of 0.00182. For C82A A111U A120U A145G C169U U176C, the reverse-splicing fitness was 0.00428. C82A A111U A120U A145G C169U U176A showed a reverse-splicing fitness of 0.00414. With C82A A111U A145G C150A C169A U176A the reverse-splicing fitness was 0.0197. For C82A A111U A145G C150A C169A U176C, the reverse-splicing fitness was 0.0242. With C82A A111U A145G C150A C169A U176G the reverse-splicing fitness was 0.00853. For C82A A111U A145C C169U U176G, the reverse-splicing fitness was 0.00582. Variant C82A A111U A145C C169U U176A has a reverse-splicing fitness of 0.016. C82A A111U A145C C169U U176C showed a reverse-splicing fitness of 0.0102. For C82A A111U A120U A145C C169U U176A, the reverse-splicing fitness was 0.00334. Work on C82A A111U A120U A145C C169U U176C yielded a reverse-splicing fitness of 0.0036. With C82A A111U A120U A145C C169U U176G the reverse-splicing fitness was 0.00193. In the case of C82A A111U A120U A145G C150A C169A U176C, the reverse-splicing fitness is reported as 0.00627. Variant C82A A111U A120U A145G C150A C169A U176G has a reverse-splicing fitness of 0.00392. C82A A111U A120U A145G C150A C169A U176A gave a reverse-splicing fitness of 0.0108. C82A A111U A120U A145G C150G C169G U176A showed a reverse-splicing fitness of 0.00885. Variant C82A A111U A120U A145G C150G C169G U176G has a reverse-splicing fitness of 0.00413. In the case of C82A A111U A120U A145G C150G C169G U176C, the reverse-splicing fitness is reported as 0.00639. Variant C82A A111U A120U C150G C169G U176G has a reverse-splicing fitness of 0.00289. C82A A111U A120U C150G C169G U176C showed a reverse-splicing fitness of 0.00289. Variant C82A A111U A120U C150G C169G U176A has a reverse-splicing fitness of 0.00475. With C82A A111U A120U U176A the reverse-splicing fitness was 0.00842. With C82A A111U A120U U176G the reverse-splicing fitness was 0.00275. Variant C82A A111U A120U U176C has a reverse-splicing fitness of 0.0105. C82A A111U A120U A145G C150U U176C gave a reverse-splicing fitness of 0.0125. For C82A A111U A120U A145G C150U U176G, the reverse-splicing fitness was 0.00393. Variant C82A A111U A120U A145G C150U U176A has a reverse-splicing fitness of 0.01. Variant C82A A111U A120U A145U C150U C169G has a reverse-splicing fitness of 0.00407. Variant C82A A111U A120U A145U C150U C169U has a reverse-splicing fitness of 0.00362. C82A A111U A120U A145U C150U C169A showed a reverse-splicing fitness of 0.00293. C82A A111U A145C C150A C169G gave a reverse-splicing fitness of 0.00849. C82A A111U A145C C150A C169U showed a reverse-splicing fitness of 0.011. C82A A111U A145C C150A C169A showed a reverse-splicing fitness of 0.00947. Variant C82A A111U A120U C150U C169U U176A has a reverse-splicing fitness of 0.00662. C82A A111U A120U C150U C169U U176G showed a reverse-splicing fitness of 0.00262. For C82A A111U A120U C150U C169U U176C, the reverse-splicing fitness was 0.00448. Work on C82A A111U A120U C150A U176G yielded a reverse-splicing fitness of 0.0037. With C82A A111U A120U C150A U176C the reverse-splicing fitness was 0.00653. Work on C82A A111U A120U C150A U176A yielded a reverse-splicing fitness of 0.00697. Work on C82A A111U A120U A145U C150G U176G yielded a reverse-splicing fitness of 0.00272. Work on C82A A111U A120U A145U C150G U176A yielded a reverse-splicing fitness of 0.00344. In the case of C82A A111U A120U A145U C150G U176C, the reverse-splicing fitness is reported as 0.00545. In the case of C82A A111U A145G C150G C169G U176C, the reverse-splicing fitness is reported as 0.0133. For C82A A111U A145G C150G C169G U176G, the reverse-splicing fitness was 0.00649. For C82A A111U A145G C150G C169G U176A, the reverse-splicing fitness was 0.0117. C82A A111U A120U C150A C169A U176G gave a reverse-splicing fitness of 0.00306. C82A A111U A120U C150A C169A U176C showed a reverse-splicing fitness of 0.00509. Work on C82A A111U A120U C150A C169A U176A yielded a reverse-splicing fitness of 0.00679. Work on C82A A111U A120U C169U U176C yielded a reverse-splicing fitness of 0.00461. For C82A A111U A120U C169U U176G, the reverse-splicing fitness was 0.00228. With C82A A111U A120U C169U U176A the reverse-splicing fitness was 0.00519. Variant C82A A111U A120U A145G C150U C169G U176A has a reverse-splicing fitness of 0.00984. In the case of C82A A111U A120U A145G C150U C169G U176C, the reverse-splicing fitness is reported as 0.00667. In the case of C82A A111U A120U A145G C150U C169G U176G, the reverse-splicing fitness is reported as 0.00271. C82A A111U A120U A145C C150U C169U U176G showed a reverse-splicing fitness of 0.00236. Work on C82A A111U A120U A145C C150U C169U U176C yielded a reverse-splicing fitness of 0.00282. Work on C82A A111U A120U A145C C150U C169U U176A yielded a reverse-splicing fitness of 0.00291. C82A A111U A120U C150A C169G U176G showed a reverse-splicing fitness of 0.00222. Work on C82A A111U A120U C150A C169G U176C yielded a reverse-splicing fitness of 0.00511. Variant C82A A111U A120U C150A C169G U176A has a reverse-splicing fitness of 0.00956. Work on C82A A111U A120U C169A U176A yielded a reverse-splicing fitness of 0.00348. C82A A111U A120U C169A U176C gave a reverse-splicing fitness of 0.0039. C82A A111U A120U C169A U176G showed a reverse-splicing fitness of 0.00243. C82A A111U A120U A145G C169G U176A gave a reverse-splicing fitness of 0.00391. Variant C82A A111U A120U A145G C169G U176C has a reverse-splicing fitness of 0.00486. C82A A111U A120U A145G C169G U176G gave a reverse-splicing fitness of 0.00182.
